# Results from patent US20110005523A1, “Pharmaceutical Polypeptide Dry Powder Aerosol Formulation and Method of Preparation” (published 2011).
# Several values for one entry are separate records, joined by “and”; a condition that tells them apart may be missing. Equal entries are not always repeated.
# B1: human interleukin-4 mutein met-R121D/Y124D (ligand)
# chain: MHKCDITLQEIIKTLNSLTEQKTLCTELTVTDIFAASKNTTEKETFCRAATVLRQFYSHHEKDTRCLGATAQQFHRHKQLIRFLKRLDRNLWGLAGLNSCPVKEANQSTLENFLERLKTIMDEKDSKCSS
# Columns and labels:
# IL-4 receptor [1] = target: T1, IL-4 receptor (Homo sapiens (Human), UniProt P24394); test: cell-based or functional assay
# IL-4 receptor [2] = target: T1, IL-4 receptor; test: cell-based or functional assay; remark: listed apart in the source
binder,measurement,setting,value
B1,"Functionality by Bioassay (specific activity), EC 50 (nM); stability batch, 1 month (5° C.)",IL-4 receptor [1],0.178 nM and 0.138 nM
same,"Functionality by Bioassay (specific activity), EC 50 (nM); stability batch, 1 month (30° C./65%)",IL-4 receptor [1],0.191 nM and 0.184 nM
same,"Functionality by Bioassay (specific activity), EC 50 (nM); stability batch, 3 month (5° C.)",IL-4 receptor [1],0.302 nM
same,"Functionality by Bioassay (specific activity), EC 50 (nM); stability batch, 3 month (30° C./65%)",IL-4 receptor [1],0.3 nM
same,"Functionality by Bioassay (specific activity), EC 50 (nM); stability batch, T0",IL-4 receptor [1],0.246 nM and 0.263 nM
same,"Functionality by Bioassay, Standard EC 50 (nM); reference standard",IL-4 receptor [1],0.264 nM and 0.194 nM and 0.305 nM
same,"Mean EC50, nM (TF1 bioassay; 1-Spray Dry Powder)",IL-4 receptor [2],0.496 nM
same,"Mean EC50, nM (TF1 bioassay; 2-Spray Dry Powder)",IL-4 receptor [2],0.518 nM
same,"Mean EC50, nM (TF1 bioassay; 3-Spray Dry Powder)",IL-4 receptor [2],0.577 nM
same,"Mean EC50, nM (TF1 bioassay; 4-Spray Dry Powder)",IL-4 receptor [2],0.555 nM
same,"Mean EC50, nM (TF1 bioassay; mIL-4 Standard)",IL-4 receptor [2],0.524 nM
